In assay [1] the test system is black-tailed marmoset 5T4 ectodomain Fc. Briefly: Epitope mapping ELISA, 5T4 ectodomain Fc fusions. The arrangement: key: +: binding; −: no binding; +/−: partial binding. Format: binding. The method, then:
(§1) To identify the epitopes to which each of the A1, A2, A3, and H8 antibodies bind, ELISA assays were performed using (1) 5T4 ectodomain Fc constructs with deleted or mutated sequences, and (2) 5T4 chimera constructs transiently expressed in COS-1 cells. The ectodomain includes the amino-terminal region, two leucine-rich repeats, and the intervening hydrophilic region. Fusion proteins containing a 5T4 ectodomain and a Fc constant regions from human IgG1 were prepared using mouse 5T4 (amino acids 1-361), rat 5T4 (amino acids 1-361), cynomologous monkey 5T4 (amino acids 1-355), chimpanzee 5T4 (amino acids 1-355), and black-tailed marmoset (amino acids 1-355). The 5T4 chimera constructs are depicted in FIG. 5. The binding results are summarized in Table 5, which indicates specific binding, partial binding, or lack of binding, by each of the H8, A1, A2, and A3 antibodies.
In general terms: ELISA stands for enzyme-linked immunosorbent assay.

For assay [2], the target named is T1, rat 5T4 ectodomain Fc (Rattus norvegicus, UniProt Q5PQV5).
T1 construct: rat 5T4 (amino acids 1-361); made in house; host or cells: COS-1 cells (transient)
T1 sequence (Q5PQV5 32-361): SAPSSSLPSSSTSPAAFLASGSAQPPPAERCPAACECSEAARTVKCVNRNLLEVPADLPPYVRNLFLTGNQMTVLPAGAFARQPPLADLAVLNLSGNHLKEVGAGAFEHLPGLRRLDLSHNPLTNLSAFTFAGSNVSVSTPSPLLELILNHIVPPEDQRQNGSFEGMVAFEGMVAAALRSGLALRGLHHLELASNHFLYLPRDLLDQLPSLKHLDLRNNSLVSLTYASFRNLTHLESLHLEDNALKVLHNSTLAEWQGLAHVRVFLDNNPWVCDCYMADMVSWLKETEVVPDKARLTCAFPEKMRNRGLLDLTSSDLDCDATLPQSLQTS
As to the kind of experiment: Epitope mapping ELISA, 5T4 ectodomain Fc fusions. Format: binding. More on the design: key: +: binding; −: no binding; +/−: partial binding. The procedure:
as §1

This note sets out measurements from patent US20070231333A1, “ANTI-5T4 ANTIBODIES AND USES THEREOF” (Wyeth, priority 2006, published 2007).

black-tailed marmoset 5T4 ectodomain Fc, sequence (as listed by the source): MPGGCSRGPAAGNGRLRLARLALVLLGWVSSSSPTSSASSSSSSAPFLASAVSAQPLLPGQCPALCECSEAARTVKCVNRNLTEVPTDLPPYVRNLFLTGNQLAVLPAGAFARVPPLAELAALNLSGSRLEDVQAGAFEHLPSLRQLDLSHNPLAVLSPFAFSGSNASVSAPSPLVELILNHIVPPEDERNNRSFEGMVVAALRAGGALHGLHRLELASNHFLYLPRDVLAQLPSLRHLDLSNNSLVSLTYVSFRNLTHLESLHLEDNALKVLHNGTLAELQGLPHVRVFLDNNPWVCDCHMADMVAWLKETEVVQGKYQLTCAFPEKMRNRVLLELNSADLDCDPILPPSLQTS

B1: A2: murine anti-5T4 monoclonal antibody (IgG2b heavy chain); VH residues 19-135 of SEQ ID NO:6, VL residues 23-130 of SEQ ID NO:8 (antibody, listed as Mus musculus, V domains shown)
VH: MEWRIFLFILSGTAGVHSQVQLQQSRPELVKPGASVKMSCKASGYTFTDYVISWVKQRTGQGLEWIGEIYPGSNSIYYNEKFKGRATLTADKSSSTAYMQLSSLTSEDSAVYFCAMGGNYGFDYWGQGTTLTVSS
VL: MDFQVQIFSFLLISASVIMSRGQIVLTQSPAIMSASLGERVTLTCTASSSVNSNYLHWYQQKPGSSPKLWIYSTSNLASGVPARFSGSGSGTSYSLTISSMEAEDAATYYCHQYHRSPLTFGAGTKLELK
modifications: (1)..(18) leader sequence; (19)..(135) heavy chain variable region; (44)..(53) CDR1; (68)..(84) CDR2; (117)..(124) CDR3; (1)..(22) leader sequence; (23)..(130) light chain variable region; (46)..(56) CDR1; (73)..(79) CDR2; (112)..(120) CDR3
With B1, the “binding to 5T4 antigen construct” value in assay [1] is given as “+”; in assay [2], “−”.
